Reference: patent US6967029

Tests used:
[1] = target: endogenous c-kit of COS-1 cells (cells transfected with V19.8 alone); assay: 1.6 nM human 125I-SCF^1-164 + 320 nM unlabelled human SCF^1-164, membranes of COS-1 cells transfected with V19.8 alone
[2] = target: endogenous c-kit of COS-1 cells (cells transfected with V19.8 alone); assay: 1.6 nM human 125I-SCF^1-164 on membrane fractions of COS-1 cells transfected with V19.8 alone
[3] = target: human recombinant c-kit ligand binding plus transmembrane domains (hckit-LT1) expressed in COS-1 cells (human) (UniProt P10721); assay: 1.6 nM human 125I-SCF^1-164 on membrane fractions of COS-1 cells transfected with V19.8:hckit-LT1
[4] = target: human recombinant c-kit ligand binding plus transmembrane domains (hckit-LT1) expressed in COS-1 cells (human) (UniProt P10721); assay: 1.6 nM human 125I-SCF^1-164 + 320 nM unlabelled human SCF^1-164, membranes of COS-1 cells transfected with V19.8:hckit-LT1
[5] = target: human recombinant c-kit ligand binding plus transmembrane domains (hckit-LT1) expressed in COS-1 cells (human) (UniProt P10721); assay: 1.6 nM rat 125I-SCF^1-164 on membrane fractions of COS-1 cells transfected with V19.8:hckit-LT1
[6] = target: human recombinant c-kit ligand binding plus transmembrane domains (hckit-LT1) expressed in COS-1 cells (human) (UniProt P10721); assay: 1.6 nM rat 125I-SCF^1-164 + 320 nM unlabelled rat SCF^1-164, membranes of COS-1 cells transfected with V19.8:hckit-LT1
[7] = target: endogenous c-kit of COS-1 cells (cells transfected with V19.8 alone); assay: 1.6 nM rat 125I-SCF^1-164 on membrane fractions of COS-1 cells transfected with V19.8 alone
[8] = target: endogenous c-kit of COS-1 cells (cells transfected with V19.8 alone); assay: 1.6 nM rat 125I-SCF^1-164 + 320 nM unlabelled rat SCF^1-164, membranes of COS-1 cells transfected with V19.8 alone

CPM Bound [1] [cpm]	CPM Bound [2] [cpm]	CPM Bound [3] [cpm]	CPM Bound [4] [cpm]	CPM Bound [5] [cpm]	CPM Bound [6] [cpm]	CPM Bound [7] [cpm]	CPM Bound [8] [cpm]	Substance
2150	2160	59400	2380					human SCF^1-164 (radioiodinated; Examples 13 and 15) (from UniProt P21583 26-189) (ligand)
				70000	1100	1100	550	rat SCF^1-164 (radioiodinated; Example 15) (from UniProt P21581 26-189) (ligand)
